The values below come from article PMC12184107 (Cell Cycle, 2024).

Assay [1] has as its target T1, recombinant human LGR5 (leucine-rich repeat-containing G-protein-coupled receptor 5) (human) (UniProt O75473).
T1 sequence (O75473 whole entry, looked up): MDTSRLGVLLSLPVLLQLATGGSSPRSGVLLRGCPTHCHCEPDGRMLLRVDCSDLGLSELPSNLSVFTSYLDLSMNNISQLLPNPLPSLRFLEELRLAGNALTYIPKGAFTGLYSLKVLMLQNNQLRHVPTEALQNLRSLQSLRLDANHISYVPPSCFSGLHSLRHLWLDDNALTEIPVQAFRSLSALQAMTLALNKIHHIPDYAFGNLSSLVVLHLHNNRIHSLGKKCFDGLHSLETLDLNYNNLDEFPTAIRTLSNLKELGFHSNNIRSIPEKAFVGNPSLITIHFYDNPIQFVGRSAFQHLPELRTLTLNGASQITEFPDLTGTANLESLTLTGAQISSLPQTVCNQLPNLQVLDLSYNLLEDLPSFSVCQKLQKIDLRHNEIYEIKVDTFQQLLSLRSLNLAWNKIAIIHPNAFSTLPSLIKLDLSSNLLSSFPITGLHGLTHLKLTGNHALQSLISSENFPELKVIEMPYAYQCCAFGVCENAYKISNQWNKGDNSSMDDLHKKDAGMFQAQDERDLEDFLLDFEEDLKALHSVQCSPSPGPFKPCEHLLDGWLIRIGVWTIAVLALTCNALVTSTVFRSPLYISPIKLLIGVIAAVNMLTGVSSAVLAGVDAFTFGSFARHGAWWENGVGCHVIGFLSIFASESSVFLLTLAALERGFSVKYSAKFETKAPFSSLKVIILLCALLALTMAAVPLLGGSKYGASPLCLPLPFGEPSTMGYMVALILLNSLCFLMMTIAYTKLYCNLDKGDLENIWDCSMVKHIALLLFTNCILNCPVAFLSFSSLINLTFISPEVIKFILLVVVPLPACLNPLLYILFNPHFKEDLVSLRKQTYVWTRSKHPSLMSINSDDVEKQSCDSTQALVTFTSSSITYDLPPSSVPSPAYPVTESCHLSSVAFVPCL
Kind of assay: ELISA.

A further assay has as its system LGR5. The settings on record: gastric cancer, phage display; cited from earlier work.

Take “recombinant human R-spondin 1 (from UniProt Q2MKA7 21-263) (ligand)”: the EC50 (as a rule, the concentration needed to bring the measured effect to its halfway point) in assay [1] was 0.04 nM.
IPQILSI: the LGR5 binding entry in the assay with LGR5 was “possessed LGR5 binding capabilities”.
